Where two headings read alike, the source gives them in different places. Non-standard residues stand in square brackets, D forms with d. Residues, ends and D or L forms follow the SMILES beside them. *: point of attachment. X1 = CC(=O)O[C@@]12CO[C@@H]1C[C@H](O)[C@@]1(C)C(=O)[C@H](O)C3=C(C)[C@@H](OC(=O)[C@H](OC(=O)CCC(=O)*)[C@@H](NC(=O)OC(C)(C)C)c4ccccc4)C[C@@](O)([C@@H](OC(=O)c4ccccc4)[C@H]21)C3(C)C; Nle = CCCC[C@H](N)C(=O)O
How the values were obtained:
[1] = tested on: murine B16-F10 cancer cells; assay: syngeneic melanoma tumor model (B16-F10); type: in vivo, mice; details: for body weights, dose-response study: equivalent doses, −20% endpoint limit
Protocol: (§1) Briefly, stock solution of formulated TH1902 was prepared as sterile aliquots of 10 mg/mL frozen liquid solutions (see below). On the day of animal dosing, frozen aliquots were thawed 30 minutes at room temperature then diluted with sterile 5% dextrose injection, USP (D5W) to the desired concentration for injection (i.e. typically 5.4 or 1.35 mg/mL).
(§2) TH1902 frozen stock solution were prepared as follow: • 1. Make the TH1902 diluent solution (Diluent) the day before the solubilization. Diluent: 10% Tween™ 80 in D5W USP (w/v) with 0.04% of formic acid (v/v), ˜pH 2.9. Leave solution at room temperature until TH1902 solubilization (next day). • 2. Weigh 60 mg of TH1902 API into a 14 ml glass vial with screw caps. Adjust TH1902 weights to reflect TH1902 purity according to the certificate of analysis. • 3. Add 90% of diluent solution needed to prepare the TH1902 10 mg/ml stock solution. • 4. Swirl the content of the bottle to form opaque mixture and place a stir bar. • 5. Place bottle in the heating apparatus (glass water bath and mount for holding vial with thermometer and stir bar on a digital heating plate). Begin mixing the content of the bottle. • 6. Gradually increase the temperature of water bath in increments of 5° C. every 30 minutes until mixture turns clear (temperature ramping up to 45° C. over a period of time of about 165 to 180 minutes). Record water bath temperature every 15 minutes. • 7. Leave at room temperature for 30 minutes with gentle swirling (cool down). Measure pH. Adjust pH to 4.3±0.2 using dilute NaOH (0.1 N or less). • 8. Transfer the formulation to a graduated glass cylinder and bring to final calculated volume with diluent solution. • 9. Transfer back into the 14 ml glass vial and mix slowly for 5 minutes at room temperature. Measure pH. pH should be 4.3±0.2. • 10. Filter sterilize with a PES 0.22 μm membrane into a new and sterile 14 ml glass vial. Check the pH again. Perform UPLC analysis against a TH1902 standard curve for quantification and purity assessment. • 11. Freeze aliquots of TH1902 stock solution at −80° C. (0.5 mL per aliquot in 4 mL glass vials).
For the syngeneic B16-F10 melanoma tumor model, normal immunocompetent mice were implanted subcutaneously with murine B16-F10 cancer cells. […]
For FIG. 28A, immunocompetent mice bearing B16-F10 xenografts were repeatedly injected intravenously (arrows indicate injection days) with vehicle or with vehicle containing equivalent of docetaxel (15 mg/kg/week) or TH1902 (35 mg/kg/week). In FIG. 28B, the effects of TH1902 and docetaxel on tumor progression at day-14 are presented by subtracting the initial tumor volumes at day-0 to the tumor volumes measured at day-14 when tumors of the vehicle group reached the endpoint limits. […]

[2] = mouse plasma levels after IV bolus injection; type: in vivo, mice
Protocol: In addition, TH1902 and docetaxel mouse plasma levels were assessed in TH1902-treated mice.

[3] = assessment of neutropenia in treated mice; type: in vivo; details: athymic mice; for neutrophil counts: docetaxel 15 mg/kg/week or TH1902 at equivalent dose, up to 6 treatments, FIG. 11
Protocol: 15 young adult, female, homozygous athymic mice (Crl:CD1-Foxn1^nu, 4-6 weeks of age) received 6 consecutive treatments of docetaxel or TH1902 (at equivalent dose of docetaxel (15 mg/kg/week)). […] This level continued to decrease as the administration of docetaxel continued.

SK-MEL-28 xenografts = type: in vivo, mice
Protocol: as §1
as §2, with “Record water bath temperature every 15 minutes. • 7. Leave at room temperature for 30 minutes with gentle swirling (cool down). Measure pH. Adjust pH to 4.3±0.2 using dilute NaOH (0.1 N or less). • 8.” left out, “Transfer back into the 14 ml glass vial and mix slowly for 5 minutes at room temperature. Measure pH. pH should be 4.3±0.2. • 10. Filter sterilize with a PES 0.22 μm membrane into a new and sterile 14 ml glass vial. Check the pH again.” left out, “Freeze aliquots of TH1902 stock solution at −80° C. (0.5 mL per aliquot in 4 mL glass vials).” left out
Two of the sortilin-expressing melanoma cancer cell lines (SK-MEL-28 and B16-F10) were used to monitor whether TH1902 impeded the growth of the cells when administered at 35 mg/kg/week, versus unconjugated docetaxel at 15 mg/kg/week. This is the maximum tolerated dose (MTD) for free docetaxel, and the TH1902 formulation contains the equivalent quantity of docetaxel within this peptide drug conjugate. […] This difference was quantified when the control group reached the tumor volume endpoint at day-42. […]

[4] = tested on: AN3-CA endometrial xenograft tumor; type: in vivo, mice
Protocol: as §1
TH1902 frozen stock solution were prepared as follow: • 1. Make the TH1902 diluent solution (Diluent) the day before the solubilization. Diluent: 10% Tween™ 80 in D5W USP (w/v) with 0.04% of formic acid (v/v), ˜pH 2.9. Leave solution at room temperature until TH1902 solubilization (next day). • 2. Weigh 60 mg of TH1902 API into a 14 ml glass vial with screw caps. Adjust TH1902 weights to reflect TH1902 purity according to the certificate of analysis. • 3. Add 90% of diluent solution needed to prepare the TH1902 10 mg/ml stock solution. • 4. Swirl the content of the bottle to form opaque mixture and place a stir bar. • 5. Place bottle in the heating apparatus (glass water bath and mount for holding vial with thermometer and stir bar on a digital heating plate). Begin mixing the content of the bottle. • 6. […] Transfer the formulation to a graduated glass cylinder and bring to final calculated volume with diluent solution. • 9. […] Perform UPLC analysis against a TH1902 standard curve for quantification and purity assessment. • 11. […]
Three human sortilin-positive gynecological cancer cell lines (ovary: ES-2 and SKOV-3/Luc, endometrial: AN3-CA) were used for to assess the chemotherapeutic activity of TH1902 in vivo using xenograft models in immunodeficient mice. […] Body weights of the mice administered with docetaxel, TH1902 or vehicle were monitored as a gross indicator of morbidity.
The effect of TH1902 or docetaxel on the endometrial AN3-CA xenograft tumor model is shown on FIG. 24. […] In FIG. 24B effects of TH1902 and docetaxel on tumor progression at day-14 are presented by subtracting the initial tumor volumes at day-0 to the tumor volumes measured at day 14. […]

CCCC[C@H](NC(=O)[C@H](CC(N)=O)NC(=O)[C@H](CCCNC(=N)N)NC(=O)[C@@H](NC(=O)CNC(=O)[C@H](C)NC(=O)[C@H](CCCCNC(=O)CCC(=O)O[C@@H](C(=O)O[C@H]1C[C@@]2(O)[C@@H](OC(=O)c3ccccc3)[C@@H]3[C@]4(OC(C)=O)CO[C@@H]4C[C@H](O)[C@@]3(C)C(=O)[C@H](O)C(=C1C)C2(C)C)[C@@H](NC(=O)OC(C)(C)C)c1ccccc1)NC(=O)[C@H](C)NC(=O)[C@H](CCCNC(=N)N)NC(=O)[C@@H](NC(=O)CNC(C)=O)C(C)C)C(C)C)C(=O)N[C@@H](Cc1ccccc1)C(=O)N[C@@H](CCCCNC(=O)CCC(=O)O[C@@H](C(=O)O[C@H]1C[C@@]2(O)[C@@H](OC(=O)c3ccccc3)[C@@H]3[C@]4(OC(C)=O)CO[C@@H]4C[C@H](O)[C@@]3(C)C(=O)[C@H](O)C(=C1C)C2(C)C)[C@@H](NC(=O)OC(C)(C)C)c1ccccc1)C(=O)N[C@@H](CO)C(=O)N[C@@H](CCC(=O)O)C(=O)N[C@@H](CO)C(=O)N[C@@H](Cc1ccc(O)cc1)C(=O)O [TH1902, Acetyl-GVRAK(docetaxel)AGVRN(Nle)FK(docetaxel)SESY] (Ac-GVRAK(X1)AGVRN[Nle]FK(X1)SESY-OH)
mouse body weights, first study ([1]; TH1902 35 mg/kg/week): without having an impact on mouse body weights
body weights, dose-response study [1]: within the acceptable range
concentration of docetaxel released from TH1902 in plasma ([2]; mouse plasma, IV bolus injection 50 mg/kg TH1902): very low concentration
plasma concentration of TH1902 ([2]; mouse plasma, IV bolus injection 50 mg/kg TH1902, FIG. 12): high plasma concentration
weight loss ([3]; TH1902 at equivalent dose of docetaxel 15 mg/kg/week): no weight loss was observed
neutrophil counts [3]: no apparent change in the neutrophil counts
body weight of mice (SK-MEL-28 xenografts; TH1902 35 mg/kg/week, docetaxel 15 mg/kg/week): remained within −20% endpoint limit
body weights ([4]; MTD for docetaxel, TH1902 containing the equivalent quantity of docetaxel): retained a fairly constant weight

CC(=O)O[C@@]12CO[C@@H]1C[C@H](O)[C@@]1(C)C(=O)[C@H](O)C3=C(C)[C@@H](OC(=O)[C@H](O)[C@@H](NC(=O)OC(C)(C)C)c4ccccc4)C[C@@](O)([C@@H](OC(=O)c4ccccc4)[C@H]21)C3(C)C [docetaxel]
tumor growth at the highest dose, dose-response study ([1]; TH1902 23 mg/kg/bi-weekly, docetaxel 10 mg/kg/bi-weekly): only a minor impact on tumor growth
body weights, dose-response study [1]: within the acceptable range
docetaxel concentration that can be measured in plasma ([2]; administered as a free drug): 15-20%
neutrophil counts [3]: sharp drop in neutrophil levels
tumor growth / tumor volumes (SK-MEL-28 xenografts; TH1902 35 mg/kg/week, docetaxel 15 mg/kg/week, endpoint day-42, FIG. 27): inhibited tumor growth
body weight of mice (SK-MEL-28 xenografts; mouse, in vivo): remained within −20% endpoint limit
tumor growth, high dose ([4]; equivalent dose of docetaxel 15 mg/kg/week (TH1902 35 mg/kg/week), halved after 2 cycles): complete arrest tumor growth arrest
body weights ([4]; mouse, in vivo): greater evidence of weight loss

From patent publication US20230036041A1, “SORTILIN BINDING CONJUGATE COMPOUNDS, COMPOSITIONS AND USES THEREOF FOR TREATING CANCER” (THERATECHNOLOGIES INC., priority 2019, published 2023)
